Source: patent US20170298106A1 (ZYNGENIA, published 2017)

Legend:
angiopoietin-2 (Ang2) [1] = biological target: T1, angiopoietin-2 (Ang2) (human, UniProt O15123 68-496, limits assumed); experiment: ELISA, MRD-MBP fusions on plate-bound rhAng2, anti-MBP detection
T1 construct: Plain and biotinylated Ang2 are kept as one molecule; also called rhAng2; recombinant Ang2
T1 sequence (looked up): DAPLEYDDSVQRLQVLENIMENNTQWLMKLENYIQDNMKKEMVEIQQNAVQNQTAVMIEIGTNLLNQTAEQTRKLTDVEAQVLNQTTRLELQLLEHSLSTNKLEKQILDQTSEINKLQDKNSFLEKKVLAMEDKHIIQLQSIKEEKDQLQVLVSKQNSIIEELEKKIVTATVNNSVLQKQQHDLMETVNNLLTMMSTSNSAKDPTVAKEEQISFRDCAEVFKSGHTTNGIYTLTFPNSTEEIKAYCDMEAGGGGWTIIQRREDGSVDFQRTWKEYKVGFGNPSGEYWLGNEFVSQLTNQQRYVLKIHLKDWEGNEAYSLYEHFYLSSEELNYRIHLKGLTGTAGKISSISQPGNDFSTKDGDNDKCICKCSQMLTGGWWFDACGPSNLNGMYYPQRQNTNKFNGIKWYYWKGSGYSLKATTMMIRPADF
Experimental: (§1) MBP fusion proteins were serially diluted in Blocking buffer and added to wells for 2 hours at RT. After washing (8×300 μl wash buffer), samples were treated with HRP-mouse anti MBP mAb (NEB, cat # E8038S), diluted 1:4000 in Blocking buffer. After incubation for 1 hour at RT, wells were washed (8×300 μl wash buffer) prior to receiving 100 μl of TMB substrate (KPL Laboratories). Color development was stopped with 100 μl of H₂SO₄, and absorbance was read at 450 nm.
(§2) Bound fusion proteins were detected with anti-MBP mAb. Assayed proteins represent mutational variants of the sequence […] […] (L17D) (SEQ ID NO:107). In this series, the motif MDD within L17D was mutated at the first D to all other possible amino acids (except cysteine). Other MRDs tested were “Lm32 KtoS” and a dimer of Lm32 (2×Lm32).

angiopoietin-2 (Ang2) [2] = biological target: T1, angiopoietin-2 (Ang2); experiment: ELISA on rhAng2-coated wells, MRD-MBP fusion, anti-MBP detection; EC50 by 4 parameter fit
Experimental: as §1, §2

fold higher affinity than L17D or Lm32 KtoS (angiopoietin-2 (Ang2) [1]): > 10 fold
EC50 (angiopoietin-2 (Ang2) [2]): 5 pM
B1: 2×Lm32-MBP fusion (other, not shown: small tags and cut ends)
peptide: PGKGGGSMGAQTNFMPMDNDELLLYEQFILQQGLEGGGSMGAQTNFMPMDNDELLLYEQFILQQGLE
notes: also called Lm32 dimer
